In article PMC5041479 one finds Kd data, which are given here for 2 molecules.

Data set [1] concerns the target T1, Pif1p (yeast, UniProt P07271 40-859).
T1 sequence: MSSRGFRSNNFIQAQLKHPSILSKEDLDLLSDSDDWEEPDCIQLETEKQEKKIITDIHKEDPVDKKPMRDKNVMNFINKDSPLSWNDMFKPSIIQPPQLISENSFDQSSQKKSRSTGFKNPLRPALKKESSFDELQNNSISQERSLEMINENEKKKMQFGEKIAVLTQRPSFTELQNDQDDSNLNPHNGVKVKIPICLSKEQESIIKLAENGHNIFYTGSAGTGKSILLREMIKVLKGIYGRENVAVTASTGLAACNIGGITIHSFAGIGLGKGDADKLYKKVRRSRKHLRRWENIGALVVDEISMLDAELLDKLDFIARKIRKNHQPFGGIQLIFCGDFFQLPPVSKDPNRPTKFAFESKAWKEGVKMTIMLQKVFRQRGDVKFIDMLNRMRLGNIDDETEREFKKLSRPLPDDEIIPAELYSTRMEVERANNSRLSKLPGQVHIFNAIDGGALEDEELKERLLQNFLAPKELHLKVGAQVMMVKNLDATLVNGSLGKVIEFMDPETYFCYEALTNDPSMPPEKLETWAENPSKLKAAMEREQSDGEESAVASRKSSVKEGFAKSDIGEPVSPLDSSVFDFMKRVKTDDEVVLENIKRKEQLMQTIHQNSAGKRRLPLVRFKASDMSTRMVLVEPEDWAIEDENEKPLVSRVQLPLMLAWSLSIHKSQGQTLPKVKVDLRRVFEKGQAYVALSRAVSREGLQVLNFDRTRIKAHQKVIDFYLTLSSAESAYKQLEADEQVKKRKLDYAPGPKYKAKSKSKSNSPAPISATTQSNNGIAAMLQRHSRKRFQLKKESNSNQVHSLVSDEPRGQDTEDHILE
The experiment in a line: fluorescence anisotropy.

Data set [2] deals with T1, Pif1p. The experiment in a line: fluorescence anisotropy. The source holds these as a separate data set.

Where two headings read alike, the source gives them in different places.

As for GTGTGTGTGGTG (ssDNA) [FAM-GR12], binding with Pif1p [1] was characterised by a dissociation constant (Kd) of 8.7 nM.

As for TTTTTTTTTTTT (ssDNA) [FAM-T12], the Kd with Pif1p [2] is 25.2 nM.
